Source: article PMC2760398

Key:
[1] = target: FKBP12-TEVct (118/119 sTEVp, C-terminal TEVp fragment fused to FKBP12) (not stated | tobacco etch virus); settings: scale: % of the median FRET efficiency of control cells
[2] = target: Lyn11-FKBP12-sTEVp-CT (membrane-targeted FKBP12-TEVct of pBud-mem-sTEVp) (not stated | tobacco etch virus); settings: scale: % of the median FRET efficiency of control cells
[3] = target: Lyn11-FKBP12-sTEVp-CT (membrane-targeted FKBP12-TEVct of pBud-mem-sTEVp) (not stated | tobacco etch virus)
[4] = target: Lyn11-FKBP12-sTEVp-CT (membrane-targeted FKBP12-TEVct of pBud-mem-sTEVp) (not stated | tobacco etch virus); settings: scale: % of the median FRET efficiency of control cells; remark: listed apart in the source
[5] = target: FKBP12-TEVct (118/119 sTEVp, C-terminal TEVp fragment fused to FKBP12) (not stated | tobacco etch virus); settings: scale: % of the median FRET efficiency of control cells; remark: listed apart in the source
[6] = target: FKBP12-TEVct (118/119 sTEVp, C-terminal TEVp fragment fused to FKBP12) (not stated | tobacco etch virus); settings: scale: % of the median FRET efficiency of control cells; remark: listed apart in the source
[7] = target: FKBP12-TEVct (118/119 sTEVp, C-terminal TEVp fragment fused to FKBP12) (not stated | tobacco etch virus); settings: scale: % of the median FRET efficiency of control cells; remark: listed apart in the source
[8] = target: C34V-FKBP12-TEVct (not stated | tobacco etch virus); settings: scale: % of the median FRET efficiency of control cells

Question: Which results are given for “FRB-TEVnt (118/119 sTEVp, N-terminal TEVp fragment fused to FRB) (from UniProt P42346 2018-2114)”?
Answer: background TEVp activity: median FRET efficiency of soluble C34V (100 ng) in HeLa cells, 300-1000 ng pBud-sol-sTEVp, without rapamycin (97% at 300 ng, 84% at 1000 ng) [1]: 97; inducible TEVp activity: median FRET efficiency of soluble C34V (100 ng) in HeLa cells, 300-1000 ng pBud-sol-sTEVp, 100 nM rapamycin for 3 hours (9% at 300 ng, 3% at 1000 ng) [1]: 9; background TEVp activity: median FRET efficiency of membrane-targeted mem-C34V in HeLa cells, 300-1000 ng pBud-mem-sTEVp, without rapamycin (56% at 300 ng, 46% at 1000 ng) [2]: 56; inducible TEVp activity: median FRET efficiency of membrane-targeted mem-C34V in HeLa cells, 300-1000 ng pBud-mem-sTEVp, rapamycin for 3 hours [2]: < 4; inducible TEVp activity: median degree of current inactivation 1-(I95ms/Imax) of EGFP-KV3.4 (1 µg RNA) in HEK-293 cells, 1-3 µg pBud-mem-sTEVp, rapamycin (0.31 at 1 µg, 0.53 at 3 µg) [3]: 0.53; background TEVp activity: median FRET efficiency of soluble C34V (100 ng) in HeLa cells, 300-1000 ng pBud-mem-sTEVp, without rapamycin (no significant difference from control) [4]: 100; inducible TEVp activity: median FRET efficiency of soluble C34V (100 ng) in HeLa cells, 300-1000 ng pBud-mem-sTEVp, rapamycin (30% at 300 ng, 12% at 1000 ng) [4]: 30; TEVp activity by fragment complementation: median FRET efficiency of the substrate C34V in HeLa cells, 450 ng of each 118/119 sTEVp plasmid, 100 nM rapamycin for 3 hours at 37°C [5]: 3; background TEVp activity: median FRET efficiency of the substrate C34V in HeLa cells, 450 ng of each 118/119 sTEVp plasmid, without rapamycin [5]: 83; background TEVp activity: median FRET efficiency of membrane-targeted mem-C34V (100 ng) in HeLa cells, 300-1000 ng pBud-sol-sTEVp, without rapamycin (98% at 300 ng, 89% at 1000 ng) [6]: 98; inducible TEVp activity: median FRET efficiency of membrane-targeted mem-C34V (100 ng) in HeLa cells, 300-1000 ng pBud-sol-sTEVp, rapamycin (7% at 300 ng, 3% at 1000 ng) [6]: 7; TEVp activity by fragment complementation: median FRET efficiency of the substrate C34V in HeLa cells, 125 ng sTEVp, rapamycin for 3 hours [7]: 3; background TEVp activity: median FRET efficiency of the substrate C34V in HeLa cells, 125 ng sTEVp (optimum of a titration of the plasmid mass from 40 ng upwards), without rapamycin [7]: 96; background TEVp activity in cis: median FRET efficiency of C34V-FKBP12-TEVct (300 ng) in HeLa cells with 25 ng FRB-TEVnt, without rapamycin (significant decrease at 25 ng FRB-TEVnt and above) [8]: 84; inducible TEVp activity in cis: median FRET efficiency of C34V-FKBP12-TEVct (300 ng) in HeLa cells with 25 ng FRB-TEVnt, rapamycin for 3 hours (significant reduction also at 12 and 100 ng FRB-TEVnt) [8]: 0
